Measurements published in US20230374147A1 (HUMMINGBIRD BIOSCIENCE PTE, published 2023).
Substitutions are numbered along the chain they refer to. Where two headings read alike, the source gives them in different places.

T1: human BCMA expressed on cells (human, UniProt Q02223 1-184)
T1 construct: the cell line is named under assay; also called wildtype human BCMA
T1 sequence: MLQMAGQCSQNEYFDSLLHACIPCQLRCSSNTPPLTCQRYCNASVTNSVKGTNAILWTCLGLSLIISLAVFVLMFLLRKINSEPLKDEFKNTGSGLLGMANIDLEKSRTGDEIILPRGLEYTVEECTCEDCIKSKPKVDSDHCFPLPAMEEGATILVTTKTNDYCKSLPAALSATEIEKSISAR

T2: His-tagged human BCMA (Acro Biosystems, Cat. #BCA-H522y) (human, UniProt Q02223 1-54)
T2 construct: also called huBCMA; P1; not shown: His tag
T2 sequence: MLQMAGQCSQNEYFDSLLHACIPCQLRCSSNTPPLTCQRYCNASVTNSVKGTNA

T3: human TACI expressed on cells (human, UniProt O14836 1-293)
T3 construct: also called wildtype human TACI
T3 sequence: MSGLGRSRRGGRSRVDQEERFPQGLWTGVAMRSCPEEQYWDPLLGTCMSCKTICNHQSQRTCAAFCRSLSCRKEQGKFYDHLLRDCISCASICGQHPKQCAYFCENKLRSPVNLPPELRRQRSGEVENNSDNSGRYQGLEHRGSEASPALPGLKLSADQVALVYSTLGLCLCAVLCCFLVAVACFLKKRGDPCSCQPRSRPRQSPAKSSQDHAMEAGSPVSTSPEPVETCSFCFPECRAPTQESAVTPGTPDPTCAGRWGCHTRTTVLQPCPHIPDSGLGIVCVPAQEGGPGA

T4: BCMA Mut (human, UniProt Q02223 1-184)
T4 construct: Expressed on HEK293T cells; also called human BCMA comprising the substitutions Y13A, D15A, L17G and L18G
T4 chain: T1 sequence with Y13A, D15A, L17G, L18G

T5: His-tagged mouse BCMA (Acro Biosystems, BCA-M52H3) (mouse, UniProt O88472 1-49)
T5 construct: Bought protein; not shown: His tag
T5 chain: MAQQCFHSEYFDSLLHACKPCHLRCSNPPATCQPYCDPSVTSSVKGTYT

T6: recombinant his-tagged human TACI (Sinobiological cat #11937-H08H) (human, UniProt O14836 1-165)
T6 construct: Bought protein; also called Human TACI-His; huTACI; not shown: His tag
T6 sequence: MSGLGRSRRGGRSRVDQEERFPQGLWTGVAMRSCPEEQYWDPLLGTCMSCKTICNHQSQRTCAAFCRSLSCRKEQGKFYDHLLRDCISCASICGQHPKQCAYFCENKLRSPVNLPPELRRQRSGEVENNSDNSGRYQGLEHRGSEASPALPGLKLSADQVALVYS

B1: 539-SP1-C8 hIgG1 (antibody, V domains shown)
VH: EVQLQQSGPELVKPGSSVKMSCKASGYTFTNYVMHWVKQKPGQGLEWIGYILPYNDGTKYNEKFKGKATLTSDKSSSTAYMEFSVLTSEDSAVYYCARYDYEGSFDYWGQGTALTVSS
VL: DIQMTQTTSSLSASLGDRVTISCRASQDISNYLNWYQQKPDGTVKLLMCYTSRLHSGVPSRFSGSGSGTDFSLTISNLEQEDIATYFCQQGNTFPPTFGGGTKLEIKR
notes: Human-mouse chimeric antibody, human IgG1 format; also called [2]
B2: 539-SP7-F4 hIgG1 (antibody, V domains shown)
VH: EVQLQQSGPELVKPGASMKISCKASGYSFTGYIMNWVKQSHGKNLEWIGLINPYNGDSIYNQKFKGKATLTVDKSSSTAYMELFSLTSEDSTVYYCAAGEEFAYWGQGTLVTVSA
VL: DIQMTQTSSSLSASLGDRVTISCRASQDISIYLNWFQQKPDGTVKLLIYFTSRLHPGVPSRFSASGSGTDYSLTISHLEHEDIATYFCQQGNTLPRTFGGGTKVELKR
notes: Human-mouse chimeric antibody, human IgG1 format
B3: 552-LN1-E9 hIgG1 (antibody, V domains shown)
VH: QIQLVQSGPELKKPGETVKISCKASGYTFTDYSIYWVKQAPGKGLKWMGWINTETGEPTYADDFKGRFAFSLETSASSAYLQINTLKNEDTATYFCSISYYYAMDYWGQGTSVTVSS
VL: DIVLTQSPASLAVSLGQRATISCRASKSVSTSGYSFLHWYQQKPGQPPKLLIYFASNLESGVPARFSGSGSGTDFTLNIHPVEEEDAATYYCQHSRELPRTFGGGTKLEIKR
notes: Human-mouse chimeric antibody, human IgG1 format; also called [6]

Tests used:
[1] = biological target: T1, human BCMA expressed on cells; test: flow cytometry, H929 cells (BCMA-expressing)
[2] = biological target: T1, human BCMA expressed on cells; test: flow cytometry, HEK293 cells stably expressing human BCMA
[3] = biological target: T2, His-tagged human BCMA (Acro Biosystems, …); test: ELISA, coated His-tagged human BCMA
[4] = biological target: T2, His-tagged human BCMA (Acro Biosystems, …); test: BLI, His-tagged human BCMA on HIS1K tip; R2 0.9915
[5] = biological target: T2, His-tagged human BCMA (Acro Biosystems, …); test: ELISA, coated His-tagged human BCMA; remark: listed apart in the source
[6] = biological target: T1, human BCMA expressed on cells; test: flow cytometry, HEK 293 cells expressing human BCMA
[7] = biological target: T3, human TACI expressed on cells; test: flow cytometry, HEK 293 cells expressing human TACI
BCMA Mut = biological target: T4, BCMA Mut; test: flow cytometry on HEK293T cells expressing BCMA Mut
[8] = biological target: T7, cynomolgous macaque BCMA expressed on CHOK1 cells; test: flow cytometry, CHOK1 cells transiently expressing cynomolgus BCMA
T7 construct: also called cyno BCMA on cells

[9] = biological target: T8, His-tagged cynomolgous macaque BCMA (Acro Biosystems, BCA-C52H7) (cynomolgus macaque, UniProt Q02223 1-54 (human entry)); test: BLI, His-tagged cynomolgus BCMA on HIS1K tip; R2 0.9915
T8 construct: Bought protein; also called cyno BCMA; CyBCMA; not shown: His tag

[10] = biological target: T1, human BCMA expressed on cells; test: flow cytometry, H929 cells (BCMA-expressing); remark: listed apart in the source
[11] = biological target: T2, His-tagged human BCMA (Acro Biosystems, …); test: BLI, His-tagged human BCMA on HIS1K tip
[12] = biological target: T5, His-tagged mouse BCMA (Acro Biosystems, …); test: BLI, His-tagged mouse BCMA on HIS1K tip; R2 0.9403
[13] = biological target: T6, recombinant his-tagged human TACI …; test: ELISA, coated His-tagged human TACI
[14] = biological target: T6, recombinant his-tagged human TACI …; test: ELISA, coated His-tagged human TACI; remark: listed apart in the source
[15] = biological target: T5, His-tagged mouse BCMA (Acro Biosystems, …); test: BLI, His-tagged mouse BCMA on HIS1K tip
[16] = biological target: T2, His-tagged human BCMA (Acro Biosystems, …); test: BLI, His-tagged human BCMA on HIS1K tip, no APRIL; R2 0.9915
[17] = biological target: T8, His-tagged cynomolgous macaque BCMA …; test: BLI, His-tagged cynomolgus BCMA on HIS1K tip
[18] = biological target: T2, His-tagged human BCMA (Acro Biosystems, …); test: competition ELISA: His-tagged human BCMA binding to coated APRIL-Fc in the presence of the antibody
[19] = biological target: T2, His-tagged human BCMA (Acro Biosystems, …); test: BLI, His-tagged human BCMA on HIS1K tip, no APRIL; R2 0.9903
[20] = biological target: T8, His-tagged cynomolgous macaque BCMA …; test: BLI, His-tagged cynomolgus BCMA on HIS1K tip; R2 0.9205
[21] = biological target: T1, human BCMA expressed on cells; test: flow cytometry, HEK293 cells stably expressing human BCMA; remark: listed apart in the source
[22] = biological target: T2, His-tagged human BCMA (Acro Biosystems, …); test: BLI, His-tagged human BCMA on HIS1K tip; R2 0.9903
[23] = biological target: T6, recombinant his-tagged human TACI …; test: ELISA, coated His-tagged human TACI; remark: listed apart in the source
[24] = biological target: T5, His-tagged mouse BCMA (Acro Biosystems, …); test: BLI, His-tagged mouse BCMA on HIS1K tip; R2 0.2621, below the filing's cut-off of 0.9
[25] = biological target: T7, cynomolgous macaque BCMA expressed on …; test: flow cytometry, CHOK1 cells transiently expressing cynomolgus BCMA; remark: listed apart in the source
[26] = biological target: T8, His-tagged cynomolgous macaque BCMA …; test: ELISA, coated His-tagged cynomolgus BCMA
[27] = biological target: T8, His-tagged cynomolgous macaque BCMA …; test: BLI, His-tagged cynomolgus BCMA on HIS1K tip; R2 0.9421
[28] = biological target: T2, His-tagged human BCMA (Acro Biosystems, …); test: BLI, His-tagged human BCMA on HIS1K tip, no APRIL; R2 0.9933
[29] = biological target: T2, His-tagged human BCMA (Acro Biosystems, …); test: BLI, His-tagged human BCMA on HIS1K tip; R2 0.9933

Row | Binder | EC50 (read off the curve) [1] | EC50 [5] | EC50 [6] | Human BCMA response [11] | Mouse BCMA response [15] | Cyno BCMA response [17] | EC50 (read off the curve) [21] | binding result [23] | binding result [25] | also measured
1 | B1 | ~0.02 µg/mL | 0.059 nM | 2.56 nM | 2.46 | 0.86 | 0.456 |  |  |  | EC50 (read off the curve) [2]: ~0.4 µg/mL; EC50 (read off the curve) [3]: ~9 ng/mL; Kd [4]: < 1 pM; EC50 [7]: 8.2 nM; binding result (BCMA Mut): no binding; binding result [8]: binds; Kd [9]: 14.7 nM; EC50 (read off the curve) [10]: ~1 nM; Kd [12]: 29.5 nM; EC50 (read off the curve) [13]: ~0.01 µg/mL; EC50 [14]: 0.083 nM; Kd [16]: < 1 pM; IC50 [18]: 1.17 nM
2 | B2 | ~0.04 µg/mL |  |  | 2.61 | 0.371 | 1.36 | ~0.05 µg/mL | no binding (tested: 10 ug/ml) | binds | Kd [19]: < 1 pM; Kd [20]: 34.1 nM; Kd [22]: < 1 pM; Kd [24]: 8.97 nM
3 | B3 | ~0.05 µg/mL | 0.081 nM | 0.65 nM | 2.76 |  | 1.8 | ~0.1 µg/mL | no binding (tested: 10 ug/ml) | binds | EC50 (read off the curve) [26]: ~0.08 µg/mL; Kd [27]: 32.6 nM; Kd [28]: < 1 pM; Kd [29]: < 1 pM
